Reference: patent publication US20150150157A1, “PREPHENATE DEHYDROGENASES AND AROGENATE DEHYDROGENASES THAT ARE INSENSITIVE TO EFFECTOR FEEDBACK INHIBITION AND METHODS OF USING THE SAME” (Wisconsin Alumni Research Foundation, priority 2013, published 2015)
“Also recorded” adds a separate entry of the source. Where two headings read alike, the source gives them in different places.

Tests used:
[1] = Kinetic analysis of purified recombinant enzymes, PDH activity; assay type: biochemical
Description: (§1) Kinetic parameters of purified recombinant GmPDH1 and MtPDH1 for ADH activity (Table 3) were determined from assays conducted using varying L-arogenate concentrations (39 μM to 5 mM). Assays were incubated for 15 min with 0.5 mM NADP^+, by placing on ice and quantified by measuring production of NADPH by absorbance at 340 nm. Kinetic parameters of purified recombinant GmPDH1 and MtPDH1 for PDH activity (Table 3) were determined from assays conducted using varying prephenate concentrations (29 μM to 3.5 mM). Assays with 0.5 mM NADP^+ were monitored continuously at 340 nm using a microplate reader (Tecan GENios, Zurich, Switzerland) for 7 min. Kinetic parameters were determined using hyperbolic regression analysis in Hyper (http://homepage.ntlworld.com/john.eastetby/software.html). Enzyme assays were carried out at a protein concentration and reaction time that were in the linear range and proportional to reaction velocity. The final enzyme concentrations of the purified recombinant GmPDH1 and MtPDH1 were 0.9 μg/ml and 0.7 μg/ml for PDH activity and 3.0 μg/ml and 1.4 μg/ml for ADH activity, respectively.

[2] = Inhibition analysis: effect of L-Trp on PDH activity of purified recombinant enzymes; assay type: biochemical; details: purified recombinant enzyme
Description: (§2) ADH and PDH reactions using GmPDH1, Glyma11g35760, MtPDH1 and AtADH2 (FIG. 5A) contained 200 mM HEPES (pH 7.3), 50 mM KCl, 10% ethylene glycol, 1 mN4 NADP^+ and 1 mM substrate (L-arogenate or prephenate, respectively). Reactions were started by addition of enzyme and incubated at 37° C. for 15 min in the presence of increasing concentrations of effectors: L-Tyr FIG. 5A), L-Phe, L-Trp and HPP. Tyr was dissolved in basic conditions (0.025 N NaOH) to dissolve at high concentrations (up to 10 mM), though 200 mM HEPES maintained the final reaction pH at 7.6. Tyr sensitivity of purified recombinant GmPDH1 and MtPDH1 was also tested at prephenate concentrations ranging from […] to 59 μM, below the K values for GmPDH1 and MtPDH1, while keeping the L-Tyr concentration constant at 1 mM (FIG. 13). Enzyme activity was measured for the production of reduced cofactor (NADPH) at 340 nm using a spectrophotometer, except for crude soybean extracts, which were analyzed by HPLC after 45 min incubation and reduction to HPLA as described above.

[3] = Substrate and electron acceptor preference of purified recombinant enzymes, PDH activity; assay type: biochemical; details: with NADP+ and to a lesser extent NAD+
Description: (§3) To test the electron acceptor and substrate preference of purified recombinant enzymes (FIG. 12), we incubated reactions for 15 min with 1.5 mM substrate (L-arogenate or prephenate) and 1 mM cofactor (NAD^+ or NADP^+). Assays were conducted with decreasing enzyme concentrations and stopped by placing on ice, and the production of reduced cofactor, NAD(P)H, was Measured at 340 nm using a spectrophotometer (NanoDrop 2000, Thermo).

[4] = Inhibition analysis: effect of L-Phe on PDH activity of purified recombinant enzymes; assay type: biochemical; details: purified recombinant enzyme
Description: as §2

[5] = Inhibition analysis: effect of HPP on PDH activity of purified recombinant enzymes; assay type: biochemical; details: purified recombinant enzyme
Description: as §2

[6] = Substrate and electron acceptor preference of purified recombinant enzymes, ADH activity; assay type: biochemical; details: with NADP+ or NAD+, compared with PDH activity
Description: as §3

[7] = Qualitative HPLC detection of PDH activity in E. coli cell lysates expressing candidate enzymes; assay type: biochemical; details: 2 mM prephenate, saturating conditions
Description: ADH and PDH reactions contained 25 mM HEPES (pH 7.5), 50 mM KCl, 10% ethylene glycol, 1 mM NADP (or NAD^+), 2 mM substrate (L-arogenate or prephenate, respectively) unless otherwise noted. Arogenate was prepared by enzymatic conversion from prephenate (Sigma-Aldrich), as previously reported. Reactions were started by addition of enzyme from various sources and incubated at 37′ C. for a given amount of time, as noted below,
HPLC-based methods were used to directly detect the final products of ADH and PDH assays, Tyr and HPP, respectively from crude E. coli extracts (FIG. 3B and FIG. 3C) and crude plant extracts (FIG. 2A and FIG. 6). For HPLC detection of PDH activity, reactions were incubated for 45 min and terminated by addition of NaBH4, which converts the reaction product HPP (which produced multiple peaks; FIG. 6) into hydroxyphenyllactic acid (HPLA), followed by neutralization with 100 μl of 6 N HCl. The conversion and recovery rate was 80±1.5% s.d. which was taken into account for the calculation of specific activity from crude plant extracts (FIG. 2C). HPLA was detected as a single peak (FIG. 2A) after being separated by HPLC (Agilent 1260, Santa Clara, Calif.) equipped with a ZORBA X SB-C18 column (Agitent) using a 6-min isocratic elution at 25% methanol in 0.1% phosphoric acid, followed by a 20-min linear gradient of 25-60% methanol at a flow rate of 1.0 ml/min. HPLA was detected using UV absorbance at 270 nm and quantified by a calibration curve generated from the authentic HPLA standard (Sigma-Aldrich). For HPLC-based detection of ADH activity (FIG. 3B), reactions were incubated for 45 min and terminated by addition of methanol to a final concentration of 66% (v/v). The product, Tyr, was derivatized with OPA and separated on a ZORBAX eclipse-XDB C18 column (Agilent) using a 30-min linear gradient of 20-45% methanol in 0.1% animonium acetate at a flow rate of 0.8 ml/min. Tyr was detected by UV absorption at 336 nm and quantified on the basis of a calibration curve generated by the authentic Tyr standard (Acros, Geel, Belgium).
The crude enzyme extracts were first subjected to PDH and ADH assays using saturating conditions to screen for any detectable PDH and/or ADH activity (FIG. 3B and FIG. 3C). ADH activity was detected from all five candidates. In contrast, PDH activity was detected only in Glyma11a35760 and Glyma18g02650 as well as their closest homolog from Medicago (Mt3g071980) but not in Glyma5g07870, Glyma17g13150 and Glyma14g05990 (FIG. 3C).

[8] = Kinetic analysis of purified recombinant enzymes, ADH activity; assay type: biochemical; details: substrate L-arogenate (ADH activity), 37° C., 0.5 mM NADP+, mean ± s.e.m.
Description: as §1

[9] = Inhibition analysis: L-Tyr sensitivity of PDH activity of purified recombinant GmPDH1 and MtPDH1; assay type: biochemical; details: for effect of L-Tyr on PDH activity at low (non-saturating) prephenate concentrations: 1 mM L-Tyr, prephenate 15 mM to 59 μM; for effect of L-Tyr on PDH activity at low (non-saturating) prephenate concentrations / PDH activity: 1 mM NADP+; for PDH activity: purified recombinant enzyme, 1 mM prephenate; for inhibition of PDH activity by L-Tyr: up to 10 mM of L-Tyr
Description: as §2

[10] = literature values; read-out: Km for prephenate of other plant and microbial PDHs; cited from earlier work
[11] = cofactor NADP+, read-out: apparent Km for prephenate
[12] = substrate prephenate (PDH activity), 37° C., 0.5 mM NADP+, mean ± s.e.m.
[13] = substrate prephenate (PDH activity), 37° C., 0.5 mM NADP+, mean ± s.e.m., read-out: Km

Molecule	Km [1, 11]	Vmax [1, 12]	kcat [1, 12]	Km [1, 13]	effect of L-Trp on PDH activity [2]	PDH activity of purified recombinant enzyme [3]	effect of L-Phe on PDH activity [4]	effect of HPP on PDH activity [5]	ADH activity of purified recombinant enzyme [6]	PDH activity (qualitative detection) [7]	Km [8]	Vmax [8]	kcat [8]	effect of L-Tyr on PDH activity at low (non-saturating) prephenate concentrations [9]	PDH activity ([9]; L-Tyr 0 mM)	PDH activity ([9]; L-Tyr 0.01 mM)	PDH activity ([9]; L-Tyr 0.1 mM)	PDH activity ([9]; L-Tyr 1.0 mM)	PDH activity ([9]; L-Tyr 10 mM)	inhibition of PDH activity by L-Tyr [9]	other results
MtPDH1: Medicago truncatula prephenate dehydrogenase enzyme, recombinant, insensitive to L-Tyr (protein, listed as Medicago truncatula) MSSSSKSLKIGIVGFGTFGQFLANTMIKQGHTLTATSRTDYSQLCDQMGIHFFRDITAFLDADMDVILLCTSISSLSEVVGSMPLACLKRPTLFVDVLSVKEHPKNLLLKVLPEESDILCTHPMFGPVSGKNGWQNLTFMFDKVRIKDEVTCSKFLQIFASEGCKMVEMSCEEHDKAAAKSQFITHTIGRTLAEMDIKSTPIDTKGFQTLVELKKPVMGCSFDLYSGLFVYNRFARQELENLEHALHKVKEMLVQRIDEGQNPERTES	223 µM	655 ± 73 nKat mg^−1	21.8 ± 2.4 s⁻¹	223 ± 20 µM	did not reduce; also recorded: None of the tested molecules significantly reduced PDH activity	strong PDH activity	did not reduce; also recorded: None of the tested molecules significantly reduced PDH activity	did not reduce; also recorded: None of the tested molecules significantly reduced PDH activity	much weaker ADH activity	detected	42500 ± 21800 µM	229 ± 96 nKat mg^−1	5.5 ± 3.2 s⁻¹	did not affect; also recorded: no effect	579 ± 28 nKat/mg	604 ± 22 nKat/mg	610 ± 7 nKat/mg	641 ± 19 nKat/mg	652 ± 56 nKat/mg	not inhibited	kcat ([1]; substrate prephenate (PDH activity), 37° C., 0.5 mM NADP+, mean ± s.e.m., listed as Mt3g071980): 22 s⁻¹; Km ([8]; listed as Mt3g071980): 43000 µM
M. tuberculosis PDH: microbial prephenate dehydrogenase from the literature (protein, UniProt O69721 1-323, looked up) Prephenate dehydrogenase: MTRTVAAPPVCVLGLGLIGGSIMRAAAAAGREVFGYNRSVEGAHGARSDGFDAITDLNQTLTRAAATEALIVLAVPMPALPGMLAHIRKSAPGCPLTDVTSVKCAVLDEVTAAGLQARYVGGHPMTGTAHSGWTAGHGGLFNRAPWVVSVDDHVDPTVWSMVMTLALDCGAMVVPAKSDEHDAAAAAVSHLPHLLAEALAVTAAEVPLAFALAAGSFRDATRVAATAPDLVRAMCEANTGQLAPAADRIIDLLSRARDSLQSHGSIADLADAGHAARTRYDSFPRSDIVTVVIGADKWREQLAAAGRAGGVITSALPSLDSPQ																					Km [10]: 410 µM
GmPDH1: soybean prephenate dehydrogenase enzyme, recombinant, insensitive to L-Tyr (protein, Glycine max, soybean prephenate dehydrogenase enzyme, recombinant, insensitive to L-Tyr) MSTSSSSQSLKIGIVGFGNFGQFLAKTMIKQGHTLTATSRSDYSELCLQMGIHFFRDVSAFLTADIDVIVLCTSILSLSEVVGSMPLTSLKRPTLFVDVLSVKEHPRELLLRELPEDSDILCTHPMFGPQTAKNGWTDHTFMYDKVRIRDEVICSNFIQIFATEGCKMVQMSCEEHDRAAAKSQFITHTIGRTLGEMDIQSTPIDTKGFETLVKLKETMMRNSFDLYSGLFVYNRFARQELENLEHALHKVKETLMIQRTNGEQGHKRTES	127 µM	800 ± 21 nKat mg^−1	26.3 ± 0.7 s⁻¹	127 ± 20 µM	did not reduce; also recorded: None of the tested molecules significantly reduced PDH activity	strong PDH activity	did not reduce; also recorded: None of the tested molecules significantly reduced PDH activity	did not reduce; also recorded: None of the tested molecules significantly reduced PDH activity	much weaker ADH activity	detected	17000 µM	307 ± 56 nKat mg^−1	10.1 ± 1.8 s⁻¹	did not affect; also recorded: no effect	1059 ± 69 nKat/mg	1064 ± 52 nKat/mg	1103 ± 55 nKat/mg	1065 ± 44 nKat/mg	1152 ± 101 nKat/mg	not inhibited	kcat ([1]; substrate prephenate (PDH activity), 37° C., 0.5 mM NADP+, mean ± s.e.m., listed as Glyma18g02650): 26 s⁻¹
